From article PMC3615136 (Molecular cell, 2013) come the findings set out here.

In series [1] the target is T1, wild-type FlaI, Sulfolobus acidocaldarius (Sulfolobus acidocaldarius), Q4J9L0.
T1 chain: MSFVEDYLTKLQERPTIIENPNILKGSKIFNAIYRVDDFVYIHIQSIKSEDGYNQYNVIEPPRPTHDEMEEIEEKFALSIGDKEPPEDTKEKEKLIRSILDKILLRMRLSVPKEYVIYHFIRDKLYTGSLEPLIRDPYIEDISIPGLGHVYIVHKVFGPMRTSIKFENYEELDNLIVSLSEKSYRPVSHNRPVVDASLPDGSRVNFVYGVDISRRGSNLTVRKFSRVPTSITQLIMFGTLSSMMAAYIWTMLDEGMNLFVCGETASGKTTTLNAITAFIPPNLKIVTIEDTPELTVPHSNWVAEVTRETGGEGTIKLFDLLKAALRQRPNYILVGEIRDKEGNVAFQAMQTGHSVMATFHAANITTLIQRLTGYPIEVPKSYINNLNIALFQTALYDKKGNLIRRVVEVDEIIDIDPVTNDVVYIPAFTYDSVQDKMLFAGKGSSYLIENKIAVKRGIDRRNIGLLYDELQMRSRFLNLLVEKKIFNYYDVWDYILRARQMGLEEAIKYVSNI
Description: crystal structure. As to conditions: remark: other sources report otherwise.

Series [2] deals with the molecule itself. Description: SEC.
Series [3] deals with the molecule itself. Description: crystal structure.

Substitutions are numbered along the chain they refer to. In names and notes the source's numbering stands.

B1: wild-type FlaI, Sulfolobus acidocaldarius, Q4J9L0 1-513 (enzyme)
chain: T1 chain
In series [1], B1 returned a stoichiometry N of 6.

B2: FlaI^R307K/E336A interface mutant in the Walker B background (enzyme, Sulfolobus acidocaldarius, UniProt Q4J9L0 1-513, looked up)
chain: T1 chain with R307K, E336A
B2: the binding result in series [2] is “binds”.

B3: FlaI^N190E/E336A interface mutant in the Walker B background (enzyme, Sulfolobus acidocaldarius, UniProt Q4J9L0 1-513, looked up)
chain: T1 chain with N190E, E336A
As to B3, the binding result in series [2] is listed as “binds”.

B4: FlaI Walker B mutant (FlaI^E336A), full-length, Sulfolobus acidocaldarius (enzyme, UniProt Q4J9L0 1-513, looked up)
chain: T1 chain with E336A
On to B4, for which, in series [3], the “stoichiometry N” value turned out to be 6.
